# According to the supplement of paper PMC10065799, “High-throughput profiling of sequence recognition by tyrosine kinases and SH2 domains using bacterial peptide display” (eLife, 2023):
# What was measured:
# EPHB2 = EPHB2 (UniProt P29323); assay: phosphorylation enrichment, bacterial display (enrichment ratio); higher = better substrate or ligand; peptides without Tyr show the background
# FGFR1 = FGFR1 (UniProt P11362); assay: as above
# FGFR3 = FGFR3 (UniProt P22607); assay: as above
# AncSZ = assay: as above
# Hck = Hck (UniProt P08631); assay: as above
# EPHB1 = EPHB1 (UniProt P54762); assay: as above
# Jak2 = Jak2 (UniProt O60674); assay: as above
# Fer (mouse) = assay: as above
# MERTK = MERTK (UniProt Q12866); assay: as above
# c-Src = assay: as above
# Fes = Fes (UniProt P07332); assay: as above
# Fyn = Fyn (UniProt P06241); assay: as above
# c-Abl (mouse) = assay: as above
# SHP2-C SH2 = assay: SH2 binding enrichment of the phosphorylated peptide, bacterial display (enrichment ratio); higher = better substrate or ligand; peptides without Tyr show the background
# Grb2 SH2 = Grb2 SH2 (UniProt P62993); assay: as above
# c-Src SH2 = assay: as above
# 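For SH2 binding enrichment of the phosphorylated peptide, bacterial display in this document: peptide library displayed on the E. coli surface as eCPX fusions, selected cells deep-sequenced, score is each peptide's frequency after selection divided by its frequency in the input.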
# 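For phosphorylation enrichment, bacterial display in this document: 11-residue human phosphosite peptides and single-mutation variants displayed on the E. coli surface, counted by deep sequencing, each peptide's frequency after selection divided by its frequency in the unselected input library; frequency after pTyr selection over input frequency; kinase dosed for 20-30% of maximal phosphorylation in three min.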
# Chain of EPHB1 (P54762 whole entry, looked up): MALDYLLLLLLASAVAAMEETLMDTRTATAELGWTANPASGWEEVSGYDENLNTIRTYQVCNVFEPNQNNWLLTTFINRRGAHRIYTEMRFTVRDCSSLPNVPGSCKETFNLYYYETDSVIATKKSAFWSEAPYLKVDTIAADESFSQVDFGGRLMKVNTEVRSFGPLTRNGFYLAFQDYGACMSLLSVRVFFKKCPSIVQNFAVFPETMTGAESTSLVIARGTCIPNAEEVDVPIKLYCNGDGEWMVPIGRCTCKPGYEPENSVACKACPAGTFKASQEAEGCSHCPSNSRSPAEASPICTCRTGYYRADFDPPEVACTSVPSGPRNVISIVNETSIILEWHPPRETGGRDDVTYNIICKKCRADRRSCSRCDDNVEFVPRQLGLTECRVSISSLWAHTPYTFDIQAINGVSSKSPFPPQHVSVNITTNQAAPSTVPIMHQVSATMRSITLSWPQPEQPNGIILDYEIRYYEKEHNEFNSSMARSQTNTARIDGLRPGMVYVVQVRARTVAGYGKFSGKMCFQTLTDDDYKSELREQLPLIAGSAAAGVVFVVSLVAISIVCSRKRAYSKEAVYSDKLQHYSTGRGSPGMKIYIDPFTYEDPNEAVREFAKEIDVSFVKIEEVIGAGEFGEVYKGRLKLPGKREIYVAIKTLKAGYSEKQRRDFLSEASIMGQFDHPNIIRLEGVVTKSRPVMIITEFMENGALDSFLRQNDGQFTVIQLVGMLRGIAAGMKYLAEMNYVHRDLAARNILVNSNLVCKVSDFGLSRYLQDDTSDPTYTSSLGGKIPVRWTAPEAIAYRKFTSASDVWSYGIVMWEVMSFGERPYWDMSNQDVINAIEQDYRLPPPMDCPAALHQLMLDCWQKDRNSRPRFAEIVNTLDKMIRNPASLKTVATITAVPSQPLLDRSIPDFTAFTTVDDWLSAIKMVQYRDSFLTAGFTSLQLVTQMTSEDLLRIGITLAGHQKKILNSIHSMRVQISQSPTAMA
# Chain of FGFR3 (P22607 whole entry, looked up): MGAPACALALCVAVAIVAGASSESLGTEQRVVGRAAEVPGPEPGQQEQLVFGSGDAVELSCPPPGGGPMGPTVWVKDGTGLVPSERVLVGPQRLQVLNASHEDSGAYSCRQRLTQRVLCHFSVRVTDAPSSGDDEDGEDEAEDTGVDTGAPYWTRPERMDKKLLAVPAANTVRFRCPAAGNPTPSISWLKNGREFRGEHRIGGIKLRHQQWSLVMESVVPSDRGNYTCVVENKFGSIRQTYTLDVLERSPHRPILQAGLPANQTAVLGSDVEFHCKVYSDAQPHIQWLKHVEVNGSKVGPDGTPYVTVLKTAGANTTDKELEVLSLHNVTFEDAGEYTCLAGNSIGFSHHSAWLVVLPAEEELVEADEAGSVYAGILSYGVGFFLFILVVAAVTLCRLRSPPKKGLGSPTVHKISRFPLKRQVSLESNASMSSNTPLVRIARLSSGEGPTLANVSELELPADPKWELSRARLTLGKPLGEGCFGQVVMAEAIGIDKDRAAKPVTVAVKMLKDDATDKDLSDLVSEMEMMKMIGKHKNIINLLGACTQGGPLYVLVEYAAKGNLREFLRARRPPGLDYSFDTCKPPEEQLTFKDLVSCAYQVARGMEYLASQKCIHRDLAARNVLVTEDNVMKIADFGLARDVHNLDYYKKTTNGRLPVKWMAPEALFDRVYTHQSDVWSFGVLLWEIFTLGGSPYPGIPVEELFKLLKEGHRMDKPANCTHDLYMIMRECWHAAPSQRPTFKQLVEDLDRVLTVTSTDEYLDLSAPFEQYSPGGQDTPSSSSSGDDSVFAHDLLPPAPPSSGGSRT
# Chain of EPHB2 (P29323 whole entry, looked up): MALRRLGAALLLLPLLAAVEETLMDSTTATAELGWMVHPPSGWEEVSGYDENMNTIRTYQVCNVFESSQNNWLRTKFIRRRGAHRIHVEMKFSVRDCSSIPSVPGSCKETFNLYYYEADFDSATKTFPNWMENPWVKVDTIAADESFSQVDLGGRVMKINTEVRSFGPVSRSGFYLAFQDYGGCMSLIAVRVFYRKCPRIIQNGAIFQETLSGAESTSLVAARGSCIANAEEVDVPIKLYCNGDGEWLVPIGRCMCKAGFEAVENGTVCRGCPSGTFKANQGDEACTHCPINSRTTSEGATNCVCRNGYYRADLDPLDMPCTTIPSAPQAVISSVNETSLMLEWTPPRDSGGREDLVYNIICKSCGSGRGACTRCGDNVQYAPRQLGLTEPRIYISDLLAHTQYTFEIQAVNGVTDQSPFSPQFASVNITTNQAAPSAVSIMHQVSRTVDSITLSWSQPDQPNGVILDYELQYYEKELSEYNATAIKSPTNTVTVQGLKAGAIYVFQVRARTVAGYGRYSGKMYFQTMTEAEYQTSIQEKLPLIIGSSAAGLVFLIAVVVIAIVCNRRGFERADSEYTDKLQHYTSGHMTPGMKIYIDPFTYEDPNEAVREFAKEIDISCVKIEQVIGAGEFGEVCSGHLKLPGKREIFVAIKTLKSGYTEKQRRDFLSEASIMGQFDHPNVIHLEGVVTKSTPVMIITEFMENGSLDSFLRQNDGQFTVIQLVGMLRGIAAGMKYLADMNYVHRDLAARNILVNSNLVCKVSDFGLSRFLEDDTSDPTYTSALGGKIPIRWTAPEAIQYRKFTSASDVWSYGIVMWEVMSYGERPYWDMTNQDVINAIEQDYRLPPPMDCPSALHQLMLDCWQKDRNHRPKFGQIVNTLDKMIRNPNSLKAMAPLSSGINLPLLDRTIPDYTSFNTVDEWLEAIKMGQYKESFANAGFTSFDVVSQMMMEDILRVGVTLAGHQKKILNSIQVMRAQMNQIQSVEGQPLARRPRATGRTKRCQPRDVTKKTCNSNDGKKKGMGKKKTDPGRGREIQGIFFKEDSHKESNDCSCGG
# Chain of Hck (P08631 whole entry, looked up): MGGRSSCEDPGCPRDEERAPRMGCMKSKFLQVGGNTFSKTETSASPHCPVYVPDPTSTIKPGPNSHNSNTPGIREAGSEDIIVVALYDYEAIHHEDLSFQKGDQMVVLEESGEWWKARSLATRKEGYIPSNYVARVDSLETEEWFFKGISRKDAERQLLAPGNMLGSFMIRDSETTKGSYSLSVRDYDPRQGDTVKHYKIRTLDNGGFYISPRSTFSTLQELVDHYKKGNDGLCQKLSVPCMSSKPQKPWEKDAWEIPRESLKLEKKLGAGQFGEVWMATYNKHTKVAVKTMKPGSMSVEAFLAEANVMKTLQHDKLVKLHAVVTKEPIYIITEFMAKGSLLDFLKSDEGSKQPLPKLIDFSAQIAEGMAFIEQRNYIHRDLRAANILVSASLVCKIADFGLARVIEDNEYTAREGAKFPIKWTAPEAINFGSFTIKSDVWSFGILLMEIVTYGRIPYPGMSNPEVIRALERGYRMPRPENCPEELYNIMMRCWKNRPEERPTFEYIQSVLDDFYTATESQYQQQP
# Chain of Jak2 (O60674 whole entry, looked up): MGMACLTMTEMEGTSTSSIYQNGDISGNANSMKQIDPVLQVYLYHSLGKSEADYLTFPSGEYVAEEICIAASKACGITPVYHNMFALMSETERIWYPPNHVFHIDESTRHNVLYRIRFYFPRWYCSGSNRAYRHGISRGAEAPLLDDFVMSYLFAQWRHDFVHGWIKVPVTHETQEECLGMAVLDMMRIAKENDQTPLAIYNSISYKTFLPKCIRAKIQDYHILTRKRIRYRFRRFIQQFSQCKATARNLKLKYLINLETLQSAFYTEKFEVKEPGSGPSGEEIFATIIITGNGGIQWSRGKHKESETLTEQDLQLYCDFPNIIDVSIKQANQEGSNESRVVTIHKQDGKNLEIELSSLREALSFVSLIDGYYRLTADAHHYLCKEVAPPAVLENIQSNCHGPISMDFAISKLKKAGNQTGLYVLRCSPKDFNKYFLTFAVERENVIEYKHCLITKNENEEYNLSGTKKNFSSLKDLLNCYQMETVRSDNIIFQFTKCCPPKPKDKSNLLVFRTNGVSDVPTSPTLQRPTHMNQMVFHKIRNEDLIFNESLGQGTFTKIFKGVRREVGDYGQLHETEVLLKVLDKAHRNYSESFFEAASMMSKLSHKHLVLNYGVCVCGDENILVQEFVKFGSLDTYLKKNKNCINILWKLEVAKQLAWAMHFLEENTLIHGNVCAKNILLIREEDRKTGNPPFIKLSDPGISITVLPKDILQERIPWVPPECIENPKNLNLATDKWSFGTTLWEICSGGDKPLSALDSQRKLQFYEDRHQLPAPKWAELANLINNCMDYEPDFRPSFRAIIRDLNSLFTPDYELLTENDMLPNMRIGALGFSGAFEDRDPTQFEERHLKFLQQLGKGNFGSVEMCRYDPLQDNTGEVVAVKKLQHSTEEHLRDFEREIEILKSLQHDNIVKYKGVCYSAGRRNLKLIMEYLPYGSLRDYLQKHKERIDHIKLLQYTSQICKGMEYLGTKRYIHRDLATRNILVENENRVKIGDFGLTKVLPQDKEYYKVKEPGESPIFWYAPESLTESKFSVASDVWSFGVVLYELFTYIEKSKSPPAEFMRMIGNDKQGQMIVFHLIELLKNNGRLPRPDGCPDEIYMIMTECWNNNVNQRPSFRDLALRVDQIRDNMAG
# Chain of Fyn (P06241 whole entry, looked up): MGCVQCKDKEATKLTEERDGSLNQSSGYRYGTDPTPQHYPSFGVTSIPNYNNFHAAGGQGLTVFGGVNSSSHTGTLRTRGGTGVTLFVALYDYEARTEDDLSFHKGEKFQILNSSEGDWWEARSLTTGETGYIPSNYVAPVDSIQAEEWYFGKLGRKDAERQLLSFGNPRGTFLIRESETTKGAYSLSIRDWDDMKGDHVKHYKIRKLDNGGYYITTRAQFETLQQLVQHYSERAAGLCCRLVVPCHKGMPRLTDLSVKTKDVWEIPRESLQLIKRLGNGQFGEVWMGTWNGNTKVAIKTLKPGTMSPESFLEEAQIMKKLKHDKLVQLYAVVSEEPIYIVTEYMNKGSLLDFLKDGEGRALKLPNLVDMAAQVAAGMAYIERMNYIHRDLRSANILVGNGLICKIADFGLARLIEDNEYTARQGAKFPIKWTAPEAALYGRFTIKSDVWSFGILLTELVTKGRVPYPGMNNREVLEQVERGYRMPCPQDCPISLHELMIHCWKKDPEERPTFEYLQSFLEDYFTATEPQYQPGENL
Sequence,phosphorylation enrichment (EPHB2),phosphorylation enrichment (FGFR1),phosphorylation enrichment (FGFR3),phosphorylation enrichment (AncSZ),phosphorylation enrichment (Hck),phosphorylation enrichment (EPHB1),phosphorylation enrichment (Jak2),phosphorylation enrichment (Fer (mouse)),phosphorylation enrichment (MERTK),phosphorylation enrichment (c-Src),phosphorylation enrichment (Fes),phosphorylation enrichment (Fyn),phosphorylation enrichment (c-Abl (mouse)),SH2 binding enrichment (SHP2-C SH2),SH2 binding enrichment (Grb2 SH2),SH2 binding enrichment (c-Src SH2)
EDGCIYPGTIA [SMN1_Y109_A111G],0.613,0.553,0.856,0.947,0.552,0.7,1.04,0.555,0.529,0.567,1.25,0.595,0.868,0.699,0.915,0.619
EEDPEYKKKFR [FAM161A_Y278],0.441,0.66,0.544,1.1,0.487,0.427,1.01,0.608,0.466,0.642,0.99,0.61,0.647,0.904,1.14,0.751
EEGNPSFSSAR [MCCC2_Y520_Y520S_YF],0.467,0.388,0.623,0.682,0.395,0.418,0.826,0.426,0.459,0.433,0.876,0.42,0.681,0.574,0.75,0.462
EEGNPYFSGAR [MCCC2_Y520_S523G_YF],0.462,0.521,0.686,0.938,0.864,0.516,0.802,0.347,0.444,1.37,0.945,0.637,0.687,0.667,0.868,0.536
EEGRVYVYRLS [ITGAE_Y549],0.504,0.496,0.76,0.904,0.548,0.595,0.997,0.505,0.379,0.698,1.11,0.616,0.713,2.07,0.934,0.66
EFISENCGEII [EZH2_Y641_Y641N],0.57,0.487,0.706,1.31,0.495,0.585,1.13,0.478,0.437,0.423,1.1,0.581,0.71,0.714,1.05,0.62
EFKKHYGFSLF [ANXA3_Y295_YF],0.509,0.461,0.721,0.949,0.507,0.574,0.751,0.561,0.416,0.46,1.01,0.413,0.642,0.749,0.815,0.622
EFLHKYKGFKI [SYNE1_Y6953_Q6951H_YF],0.264,0.397,0.545,0.857,0.435,0.458,0.667,0.379,0.431,0.508,0.765,0.318,0.697,0.998,0.832,0.34
EHTTLYSDNST [KANSL1_Y223_N225D],0.433,0.475,0.591,0.697,0.561,0.45,0.654,0.661,0.443,0.497,0.801,0.407,0.512,0.723,0.949,0.585
EIIPFYGMSSY [FNDC3B_Y175_T179S],0.77,0.489,0.672,0.877,0.967,0.6,0.748,0.933,0.728,0.616,0.914,0.777,0.587,0.828,0.855,6.51
EIRTQDEAMAS [GFAP_Y242_Y242D],0.42,0.498,0.57,0.688,0.443,0.515,0.945,0.353,0.457,0.408,0.755,0.43,0.489,0.772,0.811,0.575
EKKKFYDTKIE [CASP5_Y104_YF],0.397,0.342,0.567,0.772,0.503,0.396,0.883,0.446,0.428,0.6,0.933,0.353,0.653,0.437,0.636,0.427
EKKQTYGSCRK [LACTB_Y473_R469K],0.356,0.395,0.488,0.533,0.391,0.415,0.484,0.351,0.366,0.43,0.685,0.37,0.581,0.838,1.23,0.867
EKLQKYFRQNP [EHHADH_Y682_YF],0.35,0.358,0.472,0.802,0.351,0.375,0.549,0.365,0.354,0.408,0.742,0.431,0.942,0.761,0.871,0.355
EKMWSYTKSAE [GRIA3_Y705_M706T],0.487,0.419,0.529,0.658,0.451,0.426,0.592,0.411,0.44,0.464,0.748,0.425,0.68,0.937,0.869,0.473
EKQLLYSENKT [FRK_Y132],0.652,0.456,0.599,0.732,0.85,0.528,0.638,1.19,0.766,0.616,0.919,0.465,0.563,0.674,0.976,0.55
ELAKFYKLHHI [AK7_Y391_N389K_YF],0.452,0.453,0.531,0.65,0.501,0.547,0.645,0.462,0.536,0.505,0.762,0.566,0.621,0.747,0.646,0.414

Sequence,phosphorylation enrichment (EPHB2),phosphorylation enrichment (FGFR1),phosphorylation enrichment (FGFR3),phosphorylation enrichment (AncSZ),phosphorylation enrichment (Hck),phosphorylation enrichment (EPHB1),phosphorylation enrichment (Jak2),phosphorylation enrichment (Fer (mouse)),phosphorylation enrichment (MERTK),phosphorylation enrichment (c-Src),phosphorylation enrichment (Fes),phosphorylation enrichment (Fyn),phosphorylation enrichment (c-Abl (mouse)),SH2 binding enrichment (SHP2-C SH2),SH2 binding enrichment (Grb2 SH2),SH2 binding enrichment (c-Src SH2)
ENFDDYMKDVG [FABP4_Y20_E23D],0.663,0.546,0.764,1.17,0.554,0.635,1.24,0.443,0.52,0.43,1.12,0.564,1.13,0.729,0.832,0.428
ENGPYYASYPP [GDAP2_Y488_T489A],4.76,2.69,2.01,1.09,3.82,1.64,0.662,1.29,6.92,5.28,0.735,6.13,3.72,0.773,0.729,0.632
ENPAKYDDIKK [GAPDH_Y255_K251N],0.582,0.519,0.69,0.915,0.412,0.608,0.829,0.453,0.437,0.485,1.04,0.506,0.579,0.888,0.702,1.39
ENRKYYMDLKE [PURA_Y156],0.473,0.474,0.573,0.733,0.543,0.563,0.734,0.445,0.466,0.331,0.912,0.418,0.588,0.657,0.761,0.874
EPDSLYGCGRG [ATM_Y2019_G2023R],0.45,0.399,0.576,0.933,4.04,0.534,0.858,0.574,0.419,2.52,0.926,2.05,0.885,0.886,0.93,0.559
EQFELYCEMGS [CBL_Y371_YF],2.66,1.26,1.54,1.95,2.27,3.34,1.39,1,1.58,1.49,1.68,1.43,1.02,0.638,0.934,0.46
EREFKYGAHNF [OAT_Y50_YF],0.375,0.368,0.482,0.516,0.386,0.392,0.483,0.36,0.359,0.388,0.608,0.442,0.401,0.785,0.893,0.399
ERPIRYLNHQL [CEP152_Y268_Q265P],0.409,0.383,0.424,0.504,0.393,0.421,0.476,0.417,0.497,0.46,0.591,0.457,0.552,0.627,1.18,0.488
ESDFPYSSSFE [SRPK2_Y427_T426P_YF],0.502,0.619,0.692,1.1,0.47,0.437,0.942,0.531,0.462,0.823,1.1,0.511,0.642,0.543,0.738,0.485
ESMLRYEVFGG [STOX1_Y607_YF],0.471,0.415,0.641,1.12,0.7,0.631,1.09,0.386,1.41,1.04,0.993,0.592,0.956,0.58,0.76,3.51
ESMNIYLQTSP [NAT1_Y208_T207I],0.697,0.674,0.87,1.21,1.05,0.752,1.17,0.635,0.618,1.06,1.05,0.847,0.812,0.455,0.829,0.441
ETCLAYMEKRI [TEKT1_Y118_R119M],0.617,0.48,0.814,1.2,0.56,0.591,1.17,0.691,0.406,0.511,1.13,0.517,0.818,0.775,0.67,0.445
ETMNKYDLSGR [MYEF2_Y164],0.391,0.421,0.498,0.667,0.448,0.383,0.731,0.422,0.633,0.398,0.696,0.434,0.507,0.639,0.912,0.44
EVESPYEVHDF [GIGYF2_Y1168_YF],0.922,0.593,0.81,1.93,1.44,0.837,1.23,12.3,0.974,5.45,1.3,5.32,0.825,0.832,0.785,0.486
EVKAQYEDIAQ [KRT1_Y358],0.539,0.593,0.748,1.22,0.69,0.546,1.06,0.761,0.435,0.516,1.26,0.556,0.774,0.64,1.15,11.6
EYGSGYPNDPK [RNASEH2A_Y210_D205E],0.458,0.433,0.474,0.697,0.593,0.369,0.672,0.505,0.425,0.386,0.794,0.446,0.574,0.626,0.8,0.352
